Test results as given in US20140079722A1, “EXTRACELLULAR TARGETED DRUG CONJUGATES” (CENTROSE, LLC, priority 2011, published 2014).
Ends that are not written are not given here.

Assays:
A549 NSCLC cells = assay: In vitro normal cell cytotoxicity study, carcinoma comparator line; type: cell-based; conditions: Homo sapiens, A549, 72 h
Protocol: In vitro normal cell cytotoxicity. The in vitro cytotoxic activity of M53-PEG24-CEN09-106, PEG24-CEN09-106, M53-PEG24-CEN-319, PEG24-CEN-319, proscillaridin and digitoxin against dysadherin positive primary normal human cells and a dysadherin positive human non-small cell lung carcinoma (NSCLC) cell line were tested and compared. The cells used were primary human renal epithelial cells (HREpC), primary human umbilical vein endothelial cells (HUVEC), primary human umbilical artery endothelial cells (HUAEC), and the A549 NSCLC cells. The primary cells were obtained from PromoCell GmbH, Heidelberg, Germany, and the NSCLC cell line A549 was obtained from ATCC. Primary renal epithelial cells were grown in Renal Epithelial Cell Growth Medium 2 (PromoCell GmbH, Heidelberg, Germany). Primary endothelial cells were grown in Endothelial Cell Growth Medium 2 (PromoCell GmbH, Heidelberg, Germany). […] After 72 hrs of exposure to agent, cell viability was evaluated using the Cell Titer-Glo Luminescent Cell Viability Assay (Promega, Madison, Wis.) according to the manufacturer's instructions. Luminescence measurements were performed using a Wallac Victor^2 Model 1420-041 assay plate reader (Perkin Elmer, Gaithersburg, Md.). EC50 values for each test agent were determined using GraphPad Prism 5 software.

[1] = system: primary human umbilical vein endothelial cells (HUVEC); assay: In vitro normal cell cytotoxicity; type: cell-based; conditions: Homo sapiens, 72 h
Protocol: (§1) In vitro normal cell cytotoxicity. The in vitro cytotoxic activity of M53-PEG24-CEN09-106, PEG24-CEN09-106, M53-PEG24-CEN-319, PEG24-CEN-319, proscillaridin and digitoxin against dysadherin positive primary normal human cells and a dysadherin positive human non-small cell lung carcinoma (NSCLC) cell line were tested and compared. The cells used were primary human renal epithelial cells (HREpC), primary human umbilical vein endothelial cells (HUVEC), primary human umbilical artery endothelial cells (HUAEC), and the A549 NSCLC cells. The primary cells were obtained from PromoCell GmbH, Heidelberg, Germany, and the NSCLC cell line A549 was obtained from ATCC. Primary renal epithelial cells were grown in Renal Epithelial Cell Growth Medium 2 (PromoCell GmbH, Heidelberg, Germany). Primary endothelial cells were grown in Endothelial Cell Growth Medium 2 (PromoCell GmbH, Heidelberg, Germany). The NSCLC cell line was grown in RPMI-1640 (HyClone, Thermo Scientific) supplemented with 10% fetal bovine serum. HREpC, HUVEC, HUAEC, and A549 cells were plated in 384 well plates at 1250, 1875, 2500, and 1250 cells/well (respectively) and allowed to incubate for 24 hrs at 37° C., 5% CO2, and 100% humidity. Various concentrations of conjugates M53-PEG24-CEN09-106 and […] and PEG24-CEN09-106 and […] were added to the wells in a total volume of 5 uL of media and the plates were incubated for an additional 72 hrs. After 72 hrs of exposure to agent, cell viability was evaluated using the Cell Titer-Glo Luminescent Cell Viability Assay (Promega, Madison, Wis.) according to the manufacturer's instructions. Luminescence measurements were performed using a Wallac Victor^2 Model 1420-041 assay plate reader (Perkin Elmer, Gaithersburg, Md.). EC50 values for each test agent were determined using GraphPad Prism 5 software.

[2] = system: primary human renal epithelial cells (HREpC); assay: In vitro normal cell cytotoxicity; type: cell-based; conditions: 72 h
Protocol: as §1

[3] = system: primary human umbilical artery endothelial cells (HUAEC); assay: In vitro normal cell cytotoxicity; type: cell-based; conditions: Homo sapiens, Endothelial cell, 72 h
Protocol: as §1

human dysadherin [4] = target: T1, human dysadherin (human, UniProt Q96DB9 22-178); assay: cell-based or functional assay
T1 chain: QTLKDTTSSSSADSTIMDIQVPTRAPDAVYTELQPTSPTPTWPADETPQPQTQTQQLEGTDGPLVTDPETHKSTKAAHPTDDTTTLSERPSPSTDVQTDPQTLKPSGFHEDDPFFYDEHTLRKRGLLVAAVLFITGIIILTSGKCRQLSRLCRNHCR

human dysadherin [5] = target: T1, human dysadherin; assay: cell-based or functional assay
human dysadherin [6] = target: T1, human dysadherin; assay: cell-based or functional assay
peptide CENP018 = target: T2, peptide CENP018 (human, not fully specified); assay: immunoaffinity chromatography on CENP018 coupled to SulfoLink resin
T2 construct: also called 17
T2 peptide: PTRAPDAVYTELQC

[7] = system: human cell lines H460, A549, A375, PANC1, and H929; assay: In vitro cancer cell cytotoxicity, statements over the cell line panel; type: cell-based; conditions: at the highest concentrations tested
Text: (§2) EDCs were constructed using linker-ready agents PEG24-CEN09-106, PEG24-CEN09-107, PEG24-CEN10-110 and PEG24-CEN-319. As described in Example 1, linker-ready agent PEG24-CEN-319 contain digitoxigenin while the others contain scillarenin. Linker-ready agents PEG24-CEN09-106, PEG24-CEN09-107, PEG24-CEN10-110 all use different linkers. Specifically, PEG24-CEN09-106 and PEG24-CEN09-107 have different sugars in the linker, while PEG24-CEN10-110 contains a longer linker that includes a primary amine.
(§3) All of the cell lines below, except H520, express the Na,K-ATPase with the dysadherin subunit and so present the target of the antibody and drug in close proximity.

[8] = Pharmacokinetics with varying drug loading (antigen binding ELISA); type: in vivo; conditions: unconjugated antibody, 1 mg/kg tail vein, SCID beige mice
Protocol: Serum was isolated from blood samples taken by retro-orbital blood collection at 1 hour, and 1, 2, 3, 6, and 15 days post-injection. Blood was collected into heparin coated tubes followed by centrifugation (5,000×g, 5 minutes) to isolate plasma.
Antigen capture plates that were prepared by coating wells of 96 well clear bottom ELISA plates with CENP018 (SEQ ID NO: 17) conjugated to BSA at 400 ng BSA-peptide conjugate per well in 100 uL of 200 mM carbonate buffer, pH 9.6 overnight at 4° C. Antigen coated ELISA plates were washed (×3) with PBS pH 7, blocked 30 min with PBS pH 7 containing 1% NFDM (PBS+NFDM), and then washed (×3) with PBS, pH 7. […] Goat anti-mouse IgG alkaline phosphatase (cat. number: A1418, Sigma-Aldrich, St. Louis, Mo.) was diluted 1:15,000 in PBS+NFDM and added (100 uL) to each well, incubated 30 min at RT, and the wells washed (×3) with PBS, pH 7. PNPP at 1 mg/mL in 1M DEA with 50 mM MgCl2, pH 9.8 was added (100 uL per well), and the absorbance at 405 nm was determined using a Wallac Victor^2 Model 1420-041 assay plate reader (Perkin Elmer, Gaithersburg, Md.) every 5 minutes for a total of 6 reads. Absorbance values from known antibody concentration standards were used to determine the concentration of antibody in the serum samples.

[9] = Pharmacokinetics and serum stability, antibody and drug specific ELISA; type: in vivo, Balb/c mice; conditions: Balb/c mice, EDC drug loading of 3
Protocol: The steroid drug pharmacokinetics of M53-PEG24-CEN09-106 were measured using the drug specific ELISA described below. The comparison between the two ELISA results (antibody concentrations minus drug concentrations) was used to determine the rate of drug breakdown and thus examine M53-PEG24-CEN09-106 stability.
Serum was isolated from blood samples acquired by retro-orbital blood collection at 1, 2, 4, 8, 16, 26, and 40 days post-injection. […] Plasma concentrations of the steroid drug in M53-PEG24-CEN09-106 were measured as follows. Antigen coated ELISA plates were washed (×3) with PBS pH 7, blocked 30 min with PBS pH 7 containing 1% NFDM (PBS+NFDM), and then washed (×3) with PBS, pH 7. Diluted serum samples and standard curves of M53-PEG24-CEN09-106 were prepared in the above blocking buffer and applied to coated wells, incubated 30 min at RT, and the wells were washed (×3) with PBS, pH 7. Biotinylated 25C2E3 (a monoclonal IgG1 antibody specific for the steroid portion of PEG24-CEN09-106 and conjugated to biotin [Thermo Scientific, PN 21911]) was diluted to 100 ng/mL in PBS+NFDM and added (100 uL) to each well, incubated 30 min at RT, and the wells washed (×3) with PBS, pH 7. PNPP at 1 mg/mL in 1M DEA with 50 mM MgCl2, pH 9.8 was added (100 uL per well), and the absorbance at 405 nm was determined using a Wallac Victor^2 Model 1420-041 assay plate reader (Perkin Elmer, Gaithersburg, Md.) every 5 minutes for a total of 6 reads.
For both ELISAs, absorbance values from known standards were plotted as absorbance over time, generating a linear slope for each concentration. The slopes generated were then plotted against the respective concentrations of the standards, creating a second linear plot. The absorbance values for the unknown serum samples were plotted over time, establishing a slope for unknown sample. The linear estimate from the slope versus concentration plot was then used to extrapolate concentrations for each unknown sample based on their slope.
To determine serum stability of the intact EDC (drug release from the antibody over time) in these samples, the ratio of the slopes of serum decay of the drug portion to the serum decay of the antibody portion were calculated.

A549 = assay: In vitro cancer cell cytotoxicity (CellTiter-Glo cell viability); type: cell-based, human; conditions: A549 cells, 3 days incubation
Text: as §2, §3

A375 = assay: as above; type: cell-based, human; conditions: A375 cells, 3 days incubation
Text: as §2, §3

PANC1 = assay: as above; type: cell-based, human; conditions: PANC cells, 3 days incubation
Text: as §2, §3

C[C@H]1O[C@@H](O[C@H]2[C@@H](O)C[C@H](O[C@H]3[C@@H](O)C[C@H](O[C@H]4CC[C@@]5(C)[C@H](CC[C@@H]6[C@@H]5CC[C@]5(C)[C@@H](C7=CC(=O)OC7)CC[C@]65O)C4)O[C@@H]3C)O[C@@H]2C)C[C@H](O)[C@@H]1O [Digitoxin]
EC50 (A549 NSCLC cells): 17 nM | EC50 [1]: 39 nM | EC50 [2]: 135 nM | EC50 [3]: 47 nM

C[C@@H]1O[C@@H](O[C@@H]2C=C3CC[C@@H]4[C@H](CC[C@]5(C)[C@@H](c6ccc(=O)oc6)CC[C@]45O)[C@@]3(C)CC2)[C@H](O)[C@H](O)[C@H]1O [Proscillaridin]
EC50 (A549 NSCLC cells): 2.1 nM | EC50 [1]: 5.6 nM | EC50 [2]: 10 nM | EC50 [3]: 5.6 nM

B1: M53-PEG24-CEN09-106 (antibody, V domains shown)
VH: EVQLVESGGGLVQPKGTLKLSCAASGFSFNTHAMNWVRQAPGKSLEWVARTMSKSNNYATYYADSVKDRFIIRADDSQSMLYLQMNNLKTEDTAMYYCVRDDPKRGMDYWGQGTSVTVSS
VL: GIVMSQSPSSLAVSVGEKVTMSCKPSQSLLYSRNQKIYLAWYQQKPGQSPKLLIYWASTRESGVPDRFTGSGSGTDFTLIISSVRAEDLAVYYCQQYYNYPLTFGAGTKLELKR
modifications: PEG24-CEN09-106 on reduced cysteine thiols; positions not given; PEG24-CEN09-106 (scillarenin 4-amino-xyloside PEG24 maleimide linker-drug) on reduced cysteine thiols; positions not given
EC50, in vitro activity against A549 cells (human dysadherin [4]): 1.9 nM | EC50, cytotoxicity, A549 cells (drug alone, combination study) (human dysadherin [5]): 0.3 nM | EC50, cytotoxicity (CellTiter-Glo cell viability), A375 cells (human dysadherin [6]): 0.4 nM | EC50, cytotoxicity (CellTiter-Glo cell viability), A549 cells (human dysadherin [6]): 0.2 nM | EC50, cytotoxicity (CellTiter-Glo cell viability), H460 cells (human dysadherin [6]): 0.3 nM | EC50, cytotoxicity (CellTiter-Glo cell viability), H929 cells (human dysadherin [6]): 0.1 nM | EC50, cytotoxicity (CellTiter-Glo cell viability), PANC cells (human dysadherin [6]): 0.3 nM

B2: anti-FXYD5 scFv003 (scFv)
scFv: ECQLVESGGGLVQPKGTLKLSCAASGFSFNTHAMNWVRQAPGKSLEWVARTMSKSNNYATYYADSVKDRFIISRDDSQSMLYLQMNNLKTEDTAMYYCVRDDPKRGMDYWGQGTSVTVSSGGGGSGGGGSGGGGSGIVMSQSPSSLAVSVGEKVTMSCKPSQSLLYSRNQKIYLAWYQQKPGQSPKLLIYWASTRESGVPDRFTGSGSGTDFTLIISSVRAEDLAVYYCQQYYNYPLTFGAGTKLELK
notes: Unconjugated scFv, purified from E. coli lysate on CENP018 resin; also called CENscFv003
binding result (peptide CENP018): binds

B3: M53 (antibody)
heavy: EVQLVESGGGLVQPKGTLKLSCAASGFSFNTHAMNWVRQAPGKSLEWVARTMSKSNNYATYYADSVKDRFIIRADDSQSMLYLQMNNLKTEDTAMYYCVRDDPKRGMDYWGQGTSVTVSSAKTTPPSVYPLAPGSAAQTNSMVTLGCLVKGYFPEPVTVTWNSGSLSSGVHTFPAVLQSDLYTLSSSVTVPSSTWPSETVTCNVAHPASSTKVDKKIE
light: GIVMSQSPSSLAVSVGEKVTMSCKPSQSLLYSRNQKIYLAWYQQKPGQSPKLLIYWASTRESGVPDRFTGSGSGTDFTLIISSVRAEDLAVYYCQQYYNYPLTFGAGTKLELKRADAAPTVSIFPPSSEQLTSGGASVVCFLNNFYPKDINVKWKIDGSERQNGVLNSWTDQDSKDSTYSMSSTLTLTKDEYERHNSYTCEATHKTSTSPIVKSFNR
cytotoxicity of antibody alone [7]: inactive | serum half-life of detectable (by antigen binding) antibody [8]: approximately 6 days | serum half-life of the antibody portion ([9]; 1 mg/kg tail vein): 11.9 days | serum half-life of the antibody portion ([9]; 10 mg/kg tail vein): 10.3 days | EC50 (A549): > 5000 nM | EC50 (A375): > 2000 nM | EC50 (PANC1): > 5000 nM
